The values below come from publication PMC7614924.

The test addresses 0N4R isoform of human tau bearing P301S with a C-terminal Venus tag (Sarkosyl-insoluble filaments from seeded HEK293 cells) (human).

For the substance “Recombinant N-terminally 6xHis-tagged human P301S 0N4R tau (heparin-assembled fibrils) (natural protein)”, the percent of HEK293 P301S tau-Venus cells with aggregates (Venus fluorescence) 24 h after 100 nM recombinant tau fibrils with lipofectamine turned out to be 20%.
